{"source": "paper PMC3488213", "about": "(Nucleic Acids Research, 2012)", "proteins": {"B1": {"name": "Y29W mutant of C.Esp1396I (natural protein)", "chain": "MESFLLSKVSFVIKKIRLEKGMTQEDLAWKSNLDRTYISGIERNSRNLTIKSLELIMKGLEVSDVVFFEMLIKEILKHD"}}, "molecular_target": "the molecule itself", "test": "AUC", "data": [{"protein": "B1", "values": [{"measurement": "stoichiometry N", "value": 2}]}]}
